# Experimental data from patent publication US12378310 (MULTITUDE, dated 2025).
# Target: recombinant FOLR1 protein (rProtein) (Homo sapiens (Human), UniProt P15328 25-234, limits assumed)
# Experiment: ELISA titration with varying concentrations of recombinant FOLR1 protein
# Description: Antibodies were tested in an antigen binding assay using ELISA titration experiments.
# recombinant FOLR1 protein (rProtein), sequence (P15328 25-234 limits assumed): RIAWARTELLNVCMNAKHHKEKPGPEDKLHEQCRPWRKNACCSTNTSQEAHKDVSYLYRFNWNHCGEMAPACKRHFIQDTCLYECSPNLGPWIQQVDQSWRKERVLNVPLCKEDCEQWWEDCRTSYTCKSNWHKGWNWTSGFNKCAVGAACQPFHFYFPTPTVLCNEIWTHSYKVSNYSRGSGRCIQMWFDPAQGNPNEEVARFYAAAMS
binder,measurement,value
"FOLR1-Ab1 (antibody, V domains shown, Monoclonal antibody from a hybridoma clone; V regions amplified with mouse Ig primers) VH: QVQLQQPGAELVRPGASVKLSCKASGYTFTSYWMNWVKQRPEQGLEWIGRINPYDSETHSNQKFKDKAILTVDKSSTTAYMQLSSLTSEDSAVYYCARSGGYAWFAYWGQGTLVTVSA VL: not shown",rProtein ELISA Affinity,0.39 nM
"FOLR1-Ab20 (antibody, V domains shown, Monoclonal antibody from a hybridoma clone; V regions amplified with mouse Ig primers) VH: EVLLQQSGPELVKPGASVKIPCKASGYTFTDYNMDWVKQSHGKSLEWIGDINPNNGGTIYNQKFKGKATLTVDKSSSTAYMELRSLTSEDTAVYYCARKPYYGPRYFDVWGAGTTVTVSS VL: not shown",rProtein ELISA Affinity,12.5 nM
"FOLR1-Ab14 (antibody, V domains shown, Monoclonal antibody from a hybridoma clone; V regions amplified with mouse Ig primers) VH: EVLLQQSGPELVKPGASVKIPCKASGYTFTDYNMDWVKQSHGKSLEWIGDINPNNGGTIYNQKFKGKATLTVDKSSSTAYMELRSLTSEDTAVYYCARKPYYGPRYFDVWGAGTTVTVSS VL: not shown",rProtein ELISA Affinity,3.12 nM
"FOLR1-Ab23 (antibody, V domains shown, Monoclonal antibody from a hybridoma clone; V regions amplified with mouse Ig primers) VH: EVLLQQSGPELVKPGASVKIPCKASGYTFTDYNMDWVKQSHGKSLEWIGDINPNNGGTIYNQKFKGKATLTVDKSSSTAYMELRSLTSEDTAVYYCARKPYYGPRYFDVWGAGTTVTVSS VL: not shown",rProtein ELISA Affinity,6.25 nM
"FOLR1-Ab4 (antibody, V domains shown, Monoclonal antibody from a hybridoma clone; V regions amplified with mouse Ig primers) VH: QIQLVQSGPELKKPGETVKISCKASIYTFTDYSIQWVKQAPGKGLKWMGWINTETGEPTYADDFKGRFAFSLESSASTAFLQINNLKNEDTATYFCARMGYYGPKIMDYWGQGTSVTVSS VL: not shown",rProtein ELISA Affinity,0.78 nM
